Test results: patent US20210054027

MMP-9 (recombinant human catalytic domain), sequence (chain, as listed by the source): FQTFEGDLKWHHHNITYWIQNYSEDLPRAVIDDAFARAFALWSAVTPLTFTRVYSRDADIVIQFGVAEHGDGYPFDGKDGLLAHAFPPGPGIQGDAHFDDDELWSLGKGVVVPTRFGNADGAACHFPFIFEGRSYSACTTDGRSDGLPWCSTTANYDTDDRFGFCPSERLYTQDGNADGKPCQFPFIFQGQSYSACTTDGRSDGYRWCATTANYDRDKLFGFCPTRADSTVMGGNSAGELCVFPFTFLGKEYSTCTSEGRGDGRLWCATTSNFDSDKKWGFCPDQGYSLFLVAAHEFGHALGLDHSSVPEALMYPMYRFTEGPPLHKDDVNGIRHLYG
Rho-KLDLCyclic, sequence (chain, as listed by the source): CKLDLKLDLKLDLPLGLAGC
Rho-KFDFCyclic, sequence (chain, as listed by the source): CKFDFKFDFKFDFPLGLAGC

| Substance | enzymatic cleavage of progelator (LCMS, 5 hr) (KFDFCyclic) | enzymatic cleavage of progelator (data not shown) (KLDLCyclic) | enzymatic cleavage of progelator (visible aggregation, TEM fibers) (Rho-KFDFCyclic) | enzymatic cleavage of progelator (visible aggregation, TEM fibers) (Rho-KLDLCyclic) | enzymatic cleavage of progelator (TEM fibers, CD) (Rho-KFDFCyclic) | enzymatic cleavage of progelator (TEM fibers, CD) (Rho-KLDLCyclic) |
| --- | --- | --- | --- | --- | --- | --- |
| MMP-9 (recombinant human catalytic domain) | KFDFCyclic and KLDLCyclic (data not shown) were treated with MI-associated enzymes, MMP-9 and elastase to confirm enzyme responsiveness | KFDFCyclic and KLDLCyclic (data not shown) were treated with MI-associated enzymes, MMP-9 and elastase to confirm enzyme responsiveness | Enzymatic cleavage by active MMP-9 and elastase (FIGS. 20a-20d) induced visible aggregation in the reaction vial and entangled fibrous meshes by TEM, whereas denatured enzymes elicited no response | Enzymatic cleavage by active MMP-9 and elastase (FIGS. 20a-20d) induced visible aggregation in the reaction vial and entangled fibrous meshes by TEM, whereas denatured enzymes elicited no response | – | – |
| Thermolysin | – | – | – | – | Despite the promiscuous activity of thermolysin, incubation with Rho-KLDLCyclic and Rho-KFDFCyclic induced fiber formation by TEM | Despite the promiscuous activity of thermolysin, incubation with Rho-KLDLCyclic and Rho-KFDFCyclic induced fiber formation by TEM |
